Variants at the floor of the assay were thinned out.
B1: TPR 5TU (parent)
chain: GGAUCUUCUCGAUCUAACAAAAAAGACAAAUCUGCCACAAAGCUUGAGAGCAUCUUCGGAUGCAGAGGCGGCAGCCUUCGGUGGCGCGAUAGCGCCAACGUUCUCAACUAUGACACGCAAAACGCGUGCUCCGUUGAAUGGAGUUUAUCAUG

Variants of: B1
Test: polymerase ribozyme fitness, log enrichment relative to wild type (log ratio); higher = more active; in vitro selection for triplet polymerase activity
How it was run: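 Each subunit of a heterodimeric triplet polymerase ribozyme was mutagenized into a library by PCR, transcribed, and subjected to one round of in vitro selection, run in triplicate. Libraries were annealed with a biotinylated primer, the partner subunit and triplets, incubated frozen at −7 °C, and extended constructs were gel-excised, captured on streptavidin beads and recovered by RT-PCR. Input and output libraries were sequenced on Illumina, keeping genotypes with ≥10 input reads and ≥1 read per output. Fitness is log base 2 of genotype enrichment divided by wild-type enrichment, from inverse-variance-weighted replicate averages.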

Variant	polymerase ribozyme fitness (log ratio)
GGAUCUUCUCGAUCUAACAAAAAUGACAAAUCUGCCACAAAGCUUGAGAGCAUCUUCGGAUGCAGAGGCGGCAGCCUUCGGUGGCGCGAUAGUGCCAACGUUCUCAACUAUGACACGCAAAACGGGUGCUCCAUUGAAUGGGGUUUAUCUUG [A24U C93U C125G G133A A142G A150U]	≤ -4.2
GGAUCUUCUCGAUCUAACAAAAAAGACAAAUCUGCCACAAAGCUUGAGAGCAUCUUCGGAUGCAGAGGCGGCAGCCUUCGGAGGCGCGAUAGCGCAAACGUUCUCAACUGUGACACGCAAAACGCGUGCUCCGUUGGAUGGAGUUUAUCAUG [U82A C96A A110G A137G]	-3.99
GGAUCUUCUCGAUCUAACAAAAAAGACAAAUCUGCCACAAAGCUUGAGAGCAUCUUCGGAUGCAGAGGCGGCAGCCUUCGGUGGCGUGAUAGCGCCAACGUUCUCAACUAUGACACGCAAAACGCGUGCUCCGUUGAAUGGAGUUUAGCAUG [C87U U148G]	-3.83
GGAUCUUCUCGAUCUAACAAAAAAGACAAAUCUGCCACAAAGCUUGAGAGCAUCUUCGGAUGCAGAGGCGGCAGCCUUCGGUGUCGCGAUAGCGCCAAUGUUCUCAACUAUGACACGCAAAACGCGUGCUCCGUUGAAUGGAGUUUAUCAUG [G84U C99U]	-1
GGAUCUUCUUGAUCUAACAAAAAAGACAAAUCUGCCACAAAGCUUGAGAGCAUCUUCGGAUGCAGAGGCGGCAGCCUUCGGUGGCGCGAUAGCGCGAACGUUCUCAACUAUGACACGCUAAACGCGUGCUCCGUUGAAUGGAGUUUAUCAUG [C10U C96G A119U]	≤ -4.2
GGAUCUUCUCGAUCUAACAAAAAAGACAAAUCUGCCACAAAGCUUGAGCGCAUGUUCGGAUGCAGAGGCGGCAGCCUUUGGUGGCGCAAUAGCGGCAACGUUCUCAACUAUGACACGCAAAACGCGUGCUCCGUUGAAUGGAGUUUAUCAUG [A49C C54G C79U G88A C95G]	≤ -4.2
GGAUCUUCUCGAUCUAACAAAAAAGAAAAAUCUGCCACAAUGCUUGAGAGCAUCUUCGGAUGCAGAGGCGGCAGCCUUCGGUGGCGCGAUAGCGCCAACGUUCUCAACUAUGACAUGCAAAACGCGUGCUCCGUUCAAUGGAGAUUAUCAUG [C27A A41U C116U G136C U144A]	≤ -4.2
GGAUCUUCGCGAUCUAACAAAAUAGGCGAAUCUGCCACAAAGCUUGAGAGCAUCUUCGGAAGCAGAGGCGGCAGCCUUCAGUGGCGCGAUAGCGCCAACGUUCUCAACUAUGACACGCAUAACGCGUGCUCCGUUGAAUGUAGUUUAUCAUG [U9G A23U A26G A28G U61A G80A A120U G141U]	≤ -4.2
GGAUCUUCUCGAUCUAACAAAAAAGACAAAUCUGCCACAAAGCUUGAGAGCAUCUUUGGAUGCAGAGGCGGCAGCCUUCGGUGGCUCGAUAGCGCCCACGUUCUCAACUAUGACACGCAAAACGCGUGCUCCGUUGAAUGGAGUUUAUCAUG [C57U G86U A97C]	-1.82
GGAUCUUCUCGAUCUAACAAAAAAGACAAAUGUGCCACAAAGCUUGAGAGCAUCUUCGGAUGCAGAGGCGGCAGCCUUCGGUGGCGCCAUAGCGCCAACGUUCUCAACUAUGACACGCAAAACGCGUGCUCCGUUGAAUGGAGUUUAUCAUG [C32G G88C]	-3.96
GGAUCUUCUCGAGCUAACACAAAAGAUAAAUCUGCCACAAAGCUUGAGAGCAUCUUCGGAAGCAGAGGCGGCAGCCUUCGGUGGCGCGAUAGCGCCAAAGUUCUCAACUAUGACACGCAAAACGCGUGCUCCGUUGAAUGGAGUUUAUCAUG [U13G A20C C27U U61A C99A]	≤ -4.2
GGAUCUUCUCGAUCUAACAAAAAAGACAAAUCUGCUACAAAGCUUGAGAGCAUCAUCAGAUGCAGAGGCGGCAGCCUUCGGUGGCGCGAUUGUGCCAACGUUCUCAACUAUGACACGCAAAACGCGAGCUCCGUUGAAUGGAGUUUACCAUG [C36U U55A G58A A91U C93U U127A U148C]	≤ -4.2
GGAUCUUCUCGAUCUAACAAAAAAGACAAGUCUGCCCCAAAGCUUGAGAGCAUCUUCGGAUGCAGAGGCGGCAGCCUUCGGUGGCGCGAUAGCCCCAACGUUCUCAACUAUGACACGCAAAACGCGUGCUCCGUUGAAUGGAGUUUAUCAUG [A30G A37C G94C]	≤ -4.2
GGAUCUUCUCGAUCUAUCAAAAAAGACAAAUUUGCCACAAAGCUUGAGAGCCUCUUCGGAUGCAGAGGCGGCAGCCUUCGGUGCCGCGACAGCGCCAACGUUCUCAACGAUGACACGCAAAACGCGUGCUCCGUUGAAUGGAGUUUAUCAUG [A17U C32U A52C G84C U90C U109G]	≤ -4.2
GGAUCUUCUCGAUCUAACAAAAAAGACAAAUCUGCCACAAAGCUAGAGAGCAUCUUCGGAUGCAGAGGCGGGAGCCUUUGGUUGCGCGAUAGCGCCAACGUUCGCAACUAUGACACGCAAAACGCGUGCUCCGUUGAAUGGAGUUUAUCAUG [U45A C72G C79U G83U U104G]	≤ -4.2
GGAUCUUCUCGAUCUAACAAAAAAGACAAAUCUGCCACAAAGCUUGAGAGCAUCUUCGGAUGCAGAGGCGGCAGUCUUCGGUGGCGCGAUAGCGCCAACGUUCUCAACUAUGCCACGCAAAACGCGUGCUCCGUUGAAUGGAGUUUAUCAUG [C75U A113C]	-3.87
GGAUCUUCUCGAUCUAACAAAAAAGACAAAUCUGCCACAAAACUUGAGAGCAUCUUCGGAUGCAGAGGCGGUAGCCUUCGGUGGCGCGAUUGCGCCAACGUUCUCAACUAUGACACGCAAAACGCGUGCUCCGUUGAAUGGAGUUUAUCAUG [G42A C72U A91U]	≤ -4.2
GGAUCUUCUCGAUCUAACAAAAAAGACAAAUCUGCCACAAAGCUUGAGAGCAUCUUCGGAUGCAGAGGCGGCAGCCUUCGGUGUCGCGAUAGCGCCAACGUUCUCAACUAUGACACGCAAAACGCGUGCUCCGUUGAAUGGAGUUUAUCGUG [G84U A150G]	-2.7
GGAUCUUCUCGAUCUAACAUAAAUGACAAAUCUGCCACAAAGCUUGAGAGCAUCUUCCGAUGCAGAGGCGGCAGCCUUCGGUGGCGCGAUAGCGCGAACGUUCUCAACUAUGACACGCGAAACGCGUGCUCCGUUGAAUGGAGUUUAUCAUG [A20U A24U G58C C96G A119G]	≤ -4.2
